From the nanobody polyreactivity screen of Harvey et al. (2022) come the findings set out here.

The nature of the data set: yeast display, Sf9 membrane polyspecificity reagent, FACS + sequencing; frameworks hold sequencing errors. The essentials: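 After 36–48 hours of galactose induction, yeast (Saccharomyces cerevisiae BJ5465) displaying a synthetic nanobody library were stained at 4 °C for 1 hour with 10% biotinylated, detergent-solubilized Sf9 membrane reagent. Streptavidin microbeads enriched the stained cells before FACS sorting into low and high (top ~1%) gates on anti-HA and streptavidin fluorescence. Each clone's polyreactivity label reflects its gate of origin.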
Consider “QVQLVESGGGLVQAGGSLRLSCAASGRTFYRYTMGWYRQAPGKERQLVAGISWRGGTTYYADSVKGRFTISRDNAKNTVYLQMNSLKPEDTAVYYCAAKAGYRYGSLAYYKYDYWGLGTQVTVSS”, for which the “polyreactivity (PSR sort gate)” value is given as “high polyreactivity”.
Turning to “QVQLVESGGGLVQAGGSLRLSCAASGGTCSKYAMGWYRQARGKEREFVAAITVSGGGTYYADSVKGRFTISRDNAKNTVYLQMNSLKTEDTAVYYCAADLAWTASDYWGQGTQVTLSS”, the “polyreactivity (PSR sort gate)” value is “low polyreactivity”.
Take “QVQLVESGGGLVQAGGSLRLSCAASGRIFSYYAMGWYRPAPGKERELVAAISSSGGSTYYADSVKGRFTISRDNAKNTVYLQMNSLKPEDTAVYYCRVYTRGEYYSWGQGTQVTVSS”: the “polyreactivity (PSR sort gate)” value is “high polyreactivity”.
With “QVQLVESVVGLVQAGGSLRLSCASSGSTFGANAMGRYRQAPGKEREFLAAISRSGVRTYYADSVKGRFTISRDNAKKTVYLQMNSLKPEDTAVYYCAADGYWWTYTRYDYWGQGTQVTVSS”, the “polyreactivity (PSR sort gate)” value is reported as “low polyreactivity”.
Next, “QVQLVETGVGLVQAGGSLRLSCAASGRTFTTYAMGWYRQAPGKERELVAAITGSGGSTYYADSVNGRFTISRDNAKNTVYLQMNSLKPEDTAVYDCAKGYHQYAGFYYWGQGTQVTVSS”: “high polyreactivity”; “QVQLEESGGGLDQAGGSLRLSCAASGNIFYGNAMGWYIQAAGKERALVARISGTGRTNYADSVKGRFTISRDNAKNTVYLQMNSLKPEDTAVYYCAKYGYRSRYGYDYWGQGTQVTVTS”: “high polyreactivity”; “QVQLVESGGALVQAGGSLRLSCAASGRTFGSYAMGWDRQAPGKESELVAAISRRGGSTYYADSVKGRFTISRDNAKNTVYLQLNSLKPEDSAVYYCAVRKASDYYYWGQGTQVTVSS”: “high polyreactivity”.
Regarding “QVQLVESGGGLVQAGGSLRLSCAASGIIFDGYAMGWYRQAPGKEREFVAGITWSGGSTYYADSVKGRFTISRDNAKNTVYLQMNSLKPEDTSVYYCAAKYYWYYSYSGIPLFDYWGQGTQVTVSS”, the “polyreactivity (PSR sort gate)” value is reported as “low polyreactivity”.
Next, “QVQLVESGGGLVQAGGSLRLSCAASGFTFGGYAMGWYRQAPGKERELVAAISRSGGSTSYADSVKGRFTISRDNAKNTVYLQMNSLKPEDTAVYYCAAKFFRNTYSYGMDYWGLGTQVTVSS”: “high polyreactivity”.
Turning to “QVQLQDTGGGLVQAGGSPRLSCAASDNIFPDSVMCWYRQAPGKERELVATIGFGATTNYADSVKGRFTISRDNAKITVYLQMNSLKPEDSAVYYCAADPLNYEYFCYWGQGTQVTVRS”, the “polyreactivity (PSR sort gate)” value is listed as “low polyreactivity”.
For the sequence “QVQLVESGGGLVQAGGSLRLSCAASGSIFYENNMGWYRQAPGKEREFVAAISRSGGSTYYADSVKRRFTISRDNAKNTVYLQLNSLKPEDTAVYYCAARSRPGYAVYYWGQGTQVTVSS”, the “polyreactivity (PSR sort gate)” value is reported as “high polyreactivity”.
In the case of “QVQLVESGGGLVQAGGSLRLSCAASGSTFVANTMGWYRQAPATERELVASITSGDSTNYADSVKGRFTISRDNAKNTVYFQMKSLKPEDTAVYYCAAETVWYYVGGQLIYYYWGQGTQVTVSS”, the “polyreactivity (PSR sort gate)” value is “low polyreactivity”.
The entry for “QVQLVDSGGGLVQAGGSLRLSCAASGSIFNVYAMGWYRQAPGKERELVAAITGSGGRTYYADSVKGRFTISRDNAKNTVYLQMNSLKPEDTAVYYCAATTRPGYRYEGDYWGQGTQVTVSS” is “low polyreactivity”; for “QVPMQESGGGLVQADGRLSLSCAASGSIFGYYYMGWYRQAPGKDRELVATINICGITNYADSVKGRFTISRDNAKNTVYLQMNSLKPDATAVYYCAADEYAQRDLGYWGQGPQVTVSS” it is “low polyreactivity”; for “QVQLVESGGGLVQSGGSLRLSCAASGLIFGRYAMGWYRQAPGKERELVAAISYSGARTYYADSVKGRFTISRDNEKNTVYLQMNSLKPEDTAVYYCAAGPAFRQSEWWKAYDYWGQGTQVTVSS” it is “high polyreactivity”.
For the sequence “QVQIEESGGGLVQERGSLRLSCAAYGRIFDLYAMGWNRQAPGKERELVATISGSGGSTYYADSVKGRFTISRDTAKNTVYLQMNSLKPEDTAVYNCAAVSVSSWYDYWGQGTQVTVSS”, the “polyreactivity (PSR sort gate)” value is listed as “low polyreactivity”.
As to “QVQLVESGGGLVQAGGSLRLSCAASGRIFNYYAMGWSRQAPGKERELVAAIRTGGSTYYADSVKGRFTISRDNAKNTVYLQMNSLKPEDTAVYYCARLVYYSSPYGYWGQGTQVTVSS”, the “polyreactivity (PSR sort gate)” value is listed as “high polyreactivity”.
In the case of “QDQLVESGGGLVQAGGSLRLSCAASGITFWYYAMGWYRQAPGKERELVAAISQSGGSTFYADSVKGRFTISRDNAKNTVYLQMNRLKPEVTAVYYCATGFFRYLAKFKTYRYDYWGQGTQVTVSS”, the “polyreactivity (PSR sort gate)” value is “high polyreactivity”.
Regarding “QVQLVESGGGLVQAGGSLRLSCAASGLIRYTYAMGWYRQAPGKERELVAAINSGGRTYYADSVKGRFTISRDNAKNTVYLQMNSLKPEYTAVYSCAADYGSRVRGFNYWGQGTQVTVSS”, the “polyreactivity (PSR sort gate)” value is reported as “low polyreactivity”.
“QVQLVESGGGLVQAGGSLRLSCAASGRIFPYYAMGWYRPAPGKERELVATISTAGSTNYADSVKGRFTISRDNAKNTVYLQMKSLKPEDTAVYYCATRNTWYHRGYDYWGQGTQVTVSS”: the “polyreactivity (PSR sort gate)” value is reported as “low polyreactivity”.
Take “QVQLVESGGGLVQAGGSLRLSCAASGSIFQGNVMGWYRPAPGKERELVAAISYSGDSTYYADSVKGRFTISRDNAKNTVYLQMNRLKPEDSAVYYCYAYRNRYGYRTSSRRYGYWGQGTQVTVSS”: the “polyreactivity (PSR sort gate)” value is “high polyreactivity”.
Take “QVQLQESGGGLVQAGGSLRLSCAASGSIFDTPTMGWYRQAPGKERELVASIAYDDNTYYADSVKGRFTISRYNAKHTVYLQMNSLKPGDTAVYYCAVTDRIYYYFVYWGQGTRVTVSS”: the “polyreactivity (PSR sort gate)” value was “high polyreactivity”.
Next, “QVQLVESGGGLDQAGGSLRLSCVASGFTFRVYAMGWYRQAPGKERELVAAISRVGSTNYADSVKGRFTISRDNAKNTVYLQMNSLKPEDTAVYYCNAVLRHTWVSRGYGSWGQGTQVTVSS”: “high polyreactivity”; “QVQLVESGGGLVQAGGSLRLSCAASGFIFQTNVMGWYRQAPGKERELVAAISSGDSTYYADSVKGRFTISRDNAKNTVYLQMNSLKPEDTAVYYCAADVLGTTTTVGGFNYWGQGTQVTVSS”: “low polyreactivity”; “QVQLVESGGGLVQAGGILSLSCAASGLIFRKNAKGWYRQAPGKEMELVAAISGRGGITYYADSVKGRFTISRDNAKNTVYLQMNSLKPEDTAVYYCATRFYRPRDGLYDYWGHGTQVTVSS”: “high polyreactivity”.
Regarding “QVQLVESGGGLVQAGGSLRLSCAASGRTFYYYTMGWYRQAPGKERELVAANTWNGGSTYYADSVKGRFTISRDNAKNTVYLQMNSLKPEDPAVYYCNARWTWRYDYWGQGTQVTVSS”, the “polyreactivity (PSR sort gate)” value is reported as “high polyreactivity”.
Consider “QVQLVESGGCLVQAGGSLRLSCAASVRTYETNAKGWYIQAPGKEREFVAAISSSGASTYYADSVKGSFTISRYNAKNTVYLQMNSLKTEDTAVYYCAARRREWGQGTQVTVSS”, for which the “polyreactivity (PSR sort gate)” value is on record as “low polyreactivity”.
For “QVQLVESGGGLVQAGGSLRLSCAASGSIFTTYTMGWYRQAPGKERELVAAITSSSGSTYYADSVKGRFTISRDHAKNTVYLQMNSLKPEDTAVYYCNATYSAAVDYWGQGTQVTVSS”, the “polyreactivity (PSR sort gate)” value is “low polyreactivity”.
For “QVQLVESGGGLVQAGGSLRLSCAASGRTLVGYAMGWYIQAPGKERELVAAISSRGGGTYYADSVKGRFTISRDNAKNTVYLQMNSLKQEDTAVYYCEVSGASYSWGQGTQVTVSS”, the “polyreactivity (PSR sort gate)” value is given as “high polyreactivity”.
As to “QVQLVESGGGLVQAGGSLRLSCAASGRTFSVYSMGWYRQAPGKERDLVAGITGNGGSTYYADSVKGSFTISRDNAKNTVYLQMNSLKPEDTAVYYCATAYWVIITRGEYGYCGQGTQVTVSS”, the “polyreactivity (PSR sort gate)” value was “low polyreactivity”.
The entry for “QVQLVESGGGLVQAGGSLRLSCAASGRTSGNYAMGWYRPAPGKERELVAAMRYSGSSTFYADSVKGRFTISRDNAKNTVYLQMNSLKPEDTAVYYCARDIRRKGFRYDYWGQGTQVTVSS” is “high polyreactivity”; for “QVQLVESGGGLVQAGGSLRLSCAASGSIFFYAMGWYIQAPGKERQLVAAISWRGGSTYADSVKGRFTISRDNAKKTVYLQMKSLKPEDTAVYYCAKDWVRSGAVIDYDYWGQGTQVTVSS” it is “high polyreactivity”; for “QVQLVESGGGLVQAGGSLRLSCAASGSIFDLYTMGWYRQAPGTERELVAAISRSGGSTYYADSVKGRFTISRDNAKNTVYLQMNSLKPEDTAVYYCAARGPYRPPHGDAYYTYGYWGQGTQVTVSS” it is “high polyreactivity”.
In the case of “QVQQVESGGGLVQAGGSLRLSCADSGRTFTLYAMGWYRQAPGKERELVAAITWRGGRTYYADSVKGRFTISRDNAKNTVYFQMNSLKPEVTEVYYCAARKYSPQLDRYGYWGQGTQVTVSS”, the “polyreactivity (PSR sort gate)” value is on record as “high polyreactivity”.
As to “QVQLVDSGGGLVQAGGSLRLSCPASGSIISVYARGWYRQAPGKERELVADITGTGDTYYADSVKGRFTISRDKAKNTVYLHRNSLKPDDTAGYYCNTVYELYYDPSVTEDYWGQGTQVTVSS”, the “polyreactivity (PSR sort gate)” value is given as “low polyreactivity”.
“QVQLVESGGGLVQAGGSLRLSCAASGRIFYYYAMGWYRQAPGTERELVASINSVGTTTYADSVKGRFTISRDNAKNTVYLEMNSLKPEDTAVYYCARDTGSIYYDGYEYDYWGQGTQVTVSS”: the “polyreactivity (PSR sort gate)” value is recorded as “low polyreactivity”.
Take “QVQLVESGGGLVQAGGSLRLSCAASGIIFVRNAMGWYRQAPGKERELVAAISRSGGSTYYADSVKGRFTISRDNAKNTVYLQMNSLKPEDTAVYYCAAVMRLSSGYDYWGQGTQVTVSS”: the “polyreactivity (PSR sort gate)” value is “high polyreactivity”.
For the sequence “QVQLVESGGGLVQAGGSLRLSCAASGFTFDYYAMGWYRQAPGKERELVAAITRSGTRTYYADSVKGRFTISRDNAKNTVYLQMNSLKPEDTAVYYCNVEYPKRANLSDYWGQGTQVTVSS”, the “polyreactivity (PSR sort gate)” value is “high polyreactivity”.
For “QVQLVESGGGLVQAGGSLRLSCAASGSTFKFYTMGWYRQAPGKERELVATIDWSGGSTYYADSVKGRFTISRDNAKNTVYLQMNSLKPEDTAVYYCAAYSRSRTTRLGKYYYWGQGTQVTVSS”, the “polyreactivity (PSR sort gate)” value is “high polyreactivity”.
Regarding “QVQLVESGGGLVQAGGSLRLSCAASGRTFTYYAMGWYRQAPGKEREFVASISLSGGRTYYADSVKGRFTISRDNAKNTVYLQMNSLKPEDTAVYYCNAYYPRVHRSDYWGQGTQVTVSS”, the “polyreactivity (PSR sort gate)” value is on record as “low polyreactivity”.
With “QVQLVESGGGLVQAGGSLRLSCAASGRTFTANAMGWYRQAPGKERELVAGITSRGGGTYYADSVKGRFTISRDNAKNTVYLQMNSLKPEDTAVYYCAAPYNGGGVHSYWEYDYWGQGTQVSVSS”, the “polyreactivity (PSR sort gate)” value is “high polyreactivity”.
